Here are results for one substance from US12116387B2, “Antimicrobial peptides” (priority 2021, dated 2024).

What all share (format): cell-based
Data set [1] has as its system human red blood cells (hRBCs). In words: Cytotoxicity / hemolysis against human red blood cells. The note with it: hRBCs.
Method: Once the mechanisms by which the peptide targeted bacterial cells was elucidawted, the effect of the pentapeptide motif insertion on cytotoxicity against mammalian cells was evaluated.
Data set [2] has as its system murine fibroblasts (L929). In words: Cytotoxicity against L929 fibroblasts (MTT). The note with it: L929. How it is done:
Mammalian cells toxicity assays. L929 mice fibroblasts (Rio de Janeiro Cell Bank) and SPCs were seeded in 96-well microtiter plates in a concentration of 1.0×10^5 cells per well, in DMEM medium, supplemented with different concentrations of tested peptides (1-600 μM). After 48 h incubation, a thiazolyl blue tetrazolium bromide (MTT) protocol was performed. Briefly, 60% of the medium was removed, and 10 μL of MTT (5 mg mL^−1) (Sigma, USA) solution was added to each well and the plate was incubated for 4 h, in 5% CO2, at 37° C. The blue formazan product generated was dissolved by the addition of 100 μL of 100% DMSO (Mallinckrodt, Germany) per well. Plates were then gently swirled for 5 min, at room temperature, to dissolve the precipitate. The absorbance was monitored at 575 nm using a microplate spectrophotometer (Bio-Tek, USA). Cytotoxicity was determined as a percentage of the maximum value after subtracting the background. The results were expressed as the percentage of each sample compared to the negative control (PBS buffer, pH 7.4) and cell culture was incubated in a lysis buffer (10 mM Tris, pH 7.4, 1 mM ethylenediamine tetraacetic acid (EDTA), and 0.1% Triton X-100).

The subject of data set [3] is murine macrophages monocytes (RAW 264.7). Briefly: Cytotoxicity against RAW 264.7 cells (MTT).
Data set [4] deals with mouse red blood cells (mRBCs). In words: Hemolysis of mouse red blood cells. The note with it: 0.5 to 200 μmol L^−1. The method, then: Hemolysis assays. Hemolytic activity of peptides was determined by using fresh mouse red blood cells (mRBCs), by measuring the peptide-induced changes of the optical density (OD) at 540 nm (Victor X, Perkin-Elmer, Germany), 100% lysis was determined by analysing the supernatant of erythrocytes that had been incubated with Triton X-100 (1%).

For “LL-37: human cathelicidin LL-37, used for comparison”, the “Cytotoxic activity, Peptide Concentration” value in data set [1] is 87 µmol/L; in data set [2], 95 µmol/L; in data set [3] (RAW 264.7 (Table 2)), 100 µmol/L; in data set [3] (RAW 264.7, 24 h, 0.5 to 200 μmol L^−1, MTT (Table 6)), 100 µmol/L. For the same substance, the “Hemolytic activity, Peptide Concentration” value in data set [4] is 100 µmol/L.
